According to US20260193334A1 (ZOETIS SERVICES, published 2026):

Columns and labels:
[1] = target: NGF (target protein of mAb2); assay: cell-based or functional assay
[2] = target: canine FcRn complex (FcRn-α subunit and β-microglobulin) (canine); assay: SPR (Biacore), FcRn amine-coupled on CM5, IgG as analyte, pH 6, 15 C
[3] = target: canine FcRn complex (FcRn-α subunit and β-microglobulin) (canine); assay: SPR (Biacore), FcRn amine-coupled on CM5, IgG as analyte, pH 7.2, 15 C
[4] = target: IL-31 (target protein of mAb1); assay: cell-based or functional assay
[5] = target: T1, canine FcRn complex (FcRn-α subunit and β-microglobulin) (canine, UniProt A0A8I3PFR8 25-347, biotin labeled through BirA enzymatic reaction in Example 5); assay: SPR (Biacore), FcRn amine-coupled on CM5, IgG as analyte, pH 6, 15 C
T1 sequence (A0A8I3PFR8 entry or part of it, one chain of several): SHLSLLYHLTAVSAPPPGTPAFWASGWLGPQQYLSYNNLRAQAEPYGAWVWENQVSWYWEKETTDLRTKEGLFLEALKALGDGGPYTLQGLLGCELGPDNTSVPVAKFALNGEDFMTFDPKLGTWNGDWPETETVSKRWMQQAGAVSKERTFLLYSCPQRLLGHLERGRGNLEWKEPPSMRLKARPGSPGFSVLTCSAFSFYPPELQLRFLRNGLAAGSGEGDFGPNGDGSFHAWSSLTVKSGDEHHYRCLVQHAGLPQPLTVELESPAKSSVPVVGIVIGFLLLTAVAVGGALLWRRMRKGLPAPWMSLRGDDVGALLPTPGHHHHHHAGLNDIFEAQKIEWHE

[6] = target: T1, canine FcRn complex (FcRn-α subunit and …); assay: SPR (Biacore), FcRn amine-coupled on CM5, IgG as analyte, pH 7.2, 15 C
[7] = target: TGFβ (target protein of mAb3); assay: cell-based or functional assay

B1: caninized anti-NGF antibody mAb2 of Tables 1-3, canine IgGB (65), wild-type (antibody, part only; not given: Anti-NGF heavy and light variable domains, part only)
heavy, part: ASTTAPSVFPLAPSCGSTSGSTVALACLVSGYFPEPVTVSWNSGSLTSGVHTFPSVLQSSGLYSLSSMVTVPSSRWPSETFTCNVAHPASKTKVDKPVPKRENGRVPRPPDCPKCPAPEMLGGPSVFIFPPKPKDTLLIARTPEVTCVVVDLDPEDPEVQISWFVDGKQMQTAKTQPREEQFNGTYRVVSVLPIGHQDWLKGKQFTCKVNNKALPSPIERTISKARGQAHQPSVYVLPPSREELSKNTVSLTCLIKDFFPPDIDVEWQSNGQQEPESKYRTTPPQLDEDGSYFLYSKLSVDKSRWQRGDTFICAVMHEALHNHYTQESLSHSPGK
- IC50 (cell based potency assay) [1]: 23.7 nM
- Kd [2]: 57.2 nM

B2: caninized anti-NGF antibody mAb2 of Tables 1-3, canine IgGB (65), N434H (antibody, part only; not given: Anti-NGF heavy and light variable domains, part only)
heavy, part: ASTTAPSVFPLAPSCGSTSGSTVALACLVSGYFPEPVTVSWNSGSLTSGVHTFPSVLQSSGLYSLSSMVTVPSSRWPSETFTCNVAHPASKTKVDKPVPKRENGRVPRPPDCPKCPAPEMLGGPSVFIFPPKPKDTLLIARTPEVTCVVVDLDPEDPEVQISWFVDGKQMQTAKTQPREEQFNGTYRVVSVLPIGHQDWLKGKQFTCKVNNKALPSPIERTISKARGQAHQPSVYVLPPSREELSKNTVSLTCLIKDFFPPDIDVEWQSNGQQEPESKYRTTPPQLDEDGSYFLYSKLSVDKSRWQRGDTFICAVMHEALHHHYTQESLSHSPGK
- IC50 (cell based potency assay) [1]: 20.9 nM
- Kd [2]: 7.3 nM
- Kd [3]: 1300 nM

B3: caninized anti-IL31 antibody 34D03, canine IgGB (65), wild-type (antibody)
heavy: EVQLVESGGDLVKPGGSLRLSCVASGFTFSNYGMSWVRQAPGKGLQWVATISYGGSYTYYPDNIKGRFTISRDNAKNTLYLQMNSLRAEDTAMYYCVRGYGYDTMDYWGQGTLVTVSSASTTAPSVFPLAPSCGSTSGSTVALACLVSGYFPEPVTVSWNSGSLTSGVHTFPSVLQSSGLYSLSSMVTVPSSRWPSETFTCNVAHPASKTKVDKPVPKRENGRVPRPPDCPKCPAPEMLGGPSVFIFPPKPKDTLLIARTPEVTCVVVDLDPEDPEVQISWFVDGKQMQTAKTQPREEQFNGTYRVVSVLPIGHQDWLKGKQFTCKVNNKALPSPIERTISKARGQAHQPSVYVLPPSREELSKNTVSLTCLIKDFFPPDIDVEWQSNGQQEPESKYRTTPPQLDEDGSYFLYSKLSVDKSRWQRGDTFICAVMHEALHNHYTQESLSHSPGK
VL: EIVMTQSPASLSLSQEEKVTITCKASQSVSFAGTGLMHWYQQKPGQAPKLLIYRASNLEAGVPSRFSGSGSGTDFSFTISSLEPEDVAVYYCQQSREYPWTFGQGTKLEIK
notes: also called mAb1 WT; ID No. 8
- IC50 (cell based potency assay) [4]: 1.1 nM
- Kd [5]: 15 to 24.4 nM

B4: caninized anti-IL31 antibody 34D03, canine IgGB (65), N434H (antibody)
heavy: EVQLVESGGDLVKPGGSLRLSCVASGFTFSNYGMSWVRQAPGKGLQWVATISYGGSYTYYPDNIKGRFTISRDNAKNTLYLQMNSLRAEDTAMYYCVRGYGYDTMDYWGQGTLVTVSSASTTAPSVFPLAPSCGSTSGSTVALACLVSGYFPEPVTVSWNSGSLTSGVHTFPSVLQSSGLYSLSSMVTVPSSRWPSETFTCNVAHPASKTKVDKPVPKRENGRVPRPPDCPKCPAPEMLGGPSVFIFPPKPKDTLLIARTPEVTCVVVDLDPEDPEVQISWFVDGKQMQTAKTQPREEQFNGTYRVVSVLPIGHQDWLKGKQFTCKVNNKALPSPIERTISKARGQAHQPSVYVLPPSREELSKNTVSLTCLIKDFFPPDIDVEWQSNGQQEPESKYRTTPPQLDEDGSYFLYSKLSVDKSRWQRGDTFICAVMHEALHHHYTQESLSHSPGK
VL: EIVMTQSPASLSLSQEEKVTITCKASQSVSFAGTGLMHWYQQKPGQAPKLLIYRASNLEAGVPSRFSGSGSGTDFSFTISSLEPEDVAVYYCQQSREYPWTFGQGTKLEIK
notes: also called mAb1 N434H; ID No. 31
- IC50 (cell based potency assay) [4]: 0.99 nM
- Kd [5]: 0.7 to 1.3 nM
- Kd [6]: 5000 nM

B5: anti-TGFβ antibody ZTS-4155, canine IgGB (65), wild-type (antibody)
heavy: EVQLVQSGAEVKKPGASVKVSCKTSGYTFITYWMNWVRQAPGAGLDWMGQIFPASGSTNYNEMFEGRVTLTADTSTSTAYMELSSLRAGDIAVYYCARGDGNYALDAMDYWGQGTLVTASTTAPSVFPLAPSCGSTSGSTVALACLVSGYFPEPVTVSWNSGSLTSGVHTFPSVLQSSGLYSLSSMVTVPSSRWPSETFTCNVAHPASKTKVDKPVPKRENGRVPRPPDCPKCPAPEMLGGPSVFIFPPKPKDTLLIARTPEVTCVVVDLDPEDPEVQISWFVDGKQMQTAKTQPREEQFNGTYRVVSVLPIGHQDWLKGKQFTCKVNNKALPSPIERTISKARGQAHQPSVYVLPPSREELSKNTVSLTCLIKDFFPPDIDVEWQSNGQQEPESKYRTTPPQLDEDGSYFLYSKLSVDKSRWQRGDTFICAVMHEALHNHYTQESLSHSPGK
VL: DIVMTQTPPSLSVSPRETASISCRASESVDSYGNSFMHWYLQKPGQSPQLLIYLASNLESGVSDRFSGSGSGTDFTLRISRVEANDTGVYYCQQNNEDPLTFGQ
notes: built here as variable domain plus IgGB constant domain; also called mAb3 WT
- IC50 (cell based potency assay) [7]: 0.13 µg/mL
- Kd [5]: 523 nM

B6: anti-TGFβ antibody ZTS-4155, canine IgGB (65), N434Y (antibody)
chain 1: EVQLVQSGAEVKKPGASVKVSCKTSGYTFITYWMNWVRQAPGAGLDWMGQIFPASGSTNYNEMFEGRVTLTADTSTSTAYMELSSLRAGDIAVYYCARGDGNYALDAMDYWGQGTLVTVSSASTTAPSVFPLAPSCGSTSGSTVALACLVSGYFPEPVTVSWNSGSLTSGVHTFPSVLQSSGLYSLSSMVTVPSSRWPSETFTCNVAHPASKTKVDKPVPKRENGRVPRPPDCPKCPAPEMLGGPSVFIFPPKPKDTLLIARTPEVTCVVVDLDPEDPEVQISWFVDGKQMQTAKTQPREEQFNGTYRVVSVLPIGHQDWLKGKQFTCKVNNKALPSPIERTISKARGQAHQPSVYVLPPSREELSKNTVSLTCLIKDFFPPDIDVEWQSNGQQEPESKYRTTPPQLDEDGSYFLYSKLSVDKSRWQRGDTFICAVMHEALHYHYTQESLSHSPGK
chain 2: DIVMTQTPPSLSVSPRETASISCRASESVDSYGNSFMHWYLQKPGQSPQLLIYLASNLESGVSDRFSGSGSGTDFTLRISRVEANDTGVYYCQQNNEDPLTFGQGTKLEIKRNDAQPAVYLFQPSPDQLHTGSASVVCLLNSFYPKDINVKWKVDGVIQDTGIQESVTEQDKDSTYSLSSTLTMSSTEYLSHELYSCEITHKSLPSTLIKSFQRSEC
- Kd [5]: 1.56 nM
- Kd [6]: 38.6 nM
